Common to all, as to assay: EMSA
(Mobility shift assays separate free from complexed probe on a gel.)

Test [1] concerns the target unmodified 147 bp mononucleosome, P68431. The note with it: chain shown with the change;; parent: ≥ 12.5 ± 1.2.
The target in test [2] is H3K4me3 147 bp mononucleosome, P68431. The note with it: chain shown with the change;; parent: 6.9 ± 0.8.
The target of test [3] is H3K4me3 187 bp mononucleosome, P68431. Conditions: chain shown with the change;; parent: 7.3 µM.

Numbering of substitutions follows the chain as printed. Numbers in names are those of the source.

As a reminder, the Kd is the concentration at which binding is half-saturated.

B1: KDM5C^1–839, P41229-1 D87G (protein)
chain: MEPGSDDFLPPPECPVFEPSWAEFRDPLGYIAKIRPIAEKSGICKIRPPADWQPPFAVEVDNFRFTPRIQRLNELEAQTRVKLNYLGQIAKFWEIQGSSLKIPNVERRILDLYSLSKIVVEEGGYEAICKDRRWARVAQRLNYPPGKNIGSLLRSHYERIVYPYEMYQSGANLVQCNTRPFDNEEKDKEYKPHSIPLRQSVQPSKFNSYGRRAKRLQPDPEPTEEDIEKNPELKKLQIYGAGPKMMGLGLMAKDKTLRKKDKEGPECPPTVVVKEELGGDVKVESTSPKTFLESKEELSHSPEPCTKMTMRLRRNHSNAQFIESYVCRMCSRGDEDDKLLLCDGCDDNYHIFCLLPPLPEIPKGVWRCPKCVMAECKRPPEAFGFEQATREYTLQSFGEMADSFKADYFNMPVHMVPTELVEKEFWRLVNSIEEDVTVEYGADIHSKEFGSGFPVSDSKRHLTPEEEEYATSGWNLNVMPVLEQSVLCHINADISGMKVPWLYVGMVFSAFCWHIEDHWSYSINYLHWGEPKTWYGVPSLAAEHLEEVMKKLTPELFDSQPDLLHQLVTLMNPNTLMSHGVPVVRTNQCAGEFVITFPRAYHSGFNQGYNFAEAVNFCTADWLPAGRQCIEHYRRLRRYCVFSHEELICKMAACPEKLDLNLAAAVHKEMFIMVQEERRLRKALLEKGITEAEREAFELLPDDERQCIKCKTTCFLSALACYDCPDGLVCLSHINDLCKCSSSRQYLRYRYTLDELPAMLHKLKVRAESFDTWANKVRVALEVEDGRKRSLEELRALESEARERRFPNSELLQQLKNCLSEAEACVSRALGLVSGQEAG
As for B1, the results for the equilibrium dissociation constant (Kd) in test [1], in test [2] and in test [3] were 1800 nM, 2300 nM and 1300 nM, respectively.

B2: KDM5C^1–839, P41229-1 A388P (protein)
chain: B1 chain with G87D, A388P
As to B2, the Kd was 3100 nM in test [1], 3700 nM in test [2] and 1800 nM in test [3].
